For the assay, the target named is HSP90β (purified recombinant) (UniProt P08238 1-724). The assay is described as follows: ITC.

Two molecules from article PMC3984902 (Oncogene, 2013) can be followed below.

Where a chain is given by its changes, count along the chain named. Names may count otherwise.

Sequence of HSP90β (purified recombinant) (P08238 whole entry): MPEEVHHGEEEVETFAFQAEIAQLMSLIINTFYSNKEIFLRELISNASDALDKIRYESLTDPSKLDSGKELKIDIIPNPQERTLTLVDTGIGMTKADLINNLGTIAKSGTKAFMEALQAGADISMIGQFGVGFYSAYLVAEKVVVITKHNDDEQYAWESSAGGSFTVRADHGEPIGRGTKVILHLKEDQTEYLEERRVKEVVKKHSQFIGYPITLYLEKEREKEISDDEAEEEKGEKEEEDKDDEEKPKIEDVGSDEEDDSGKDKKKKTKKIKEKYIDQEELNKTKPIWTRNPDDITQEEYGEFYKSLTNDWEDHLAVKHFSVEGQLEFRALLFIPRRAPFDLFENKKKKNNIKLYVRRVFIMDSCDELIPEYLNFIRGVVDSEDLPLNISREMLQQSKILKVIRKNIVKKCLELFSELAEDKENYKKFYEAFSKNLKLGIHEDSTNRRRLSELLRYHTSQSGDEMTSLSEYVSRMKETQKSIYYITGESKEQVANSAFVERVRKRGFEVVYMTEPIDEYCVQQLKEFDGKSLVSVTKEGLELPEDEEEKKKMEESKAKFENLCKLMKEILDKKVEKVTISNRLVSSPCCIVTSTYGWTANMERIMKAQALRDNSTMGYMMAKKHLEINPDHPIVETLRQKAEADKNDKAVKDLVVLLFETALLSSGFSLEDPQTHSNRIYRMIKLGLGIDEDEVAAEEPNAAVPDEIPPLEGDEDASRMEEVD

B1: FLAG-tagged wildtype CDC37 (purified recombinant) (natural protein)
chain: MVDYSVWDHIEVSDDEDETHPNIDTASLFRWRHQARVERMEQFQKEKEELDRGCRECKRKVAECQRKLKELEVAEGGKAELERLQAEAQQLRKEERSWEQKLEEMRKKEKSMPWNVDTLSKDGFSKSMVNTKPEKTEEDSEEVREQKHKTFVEKYEKQIKHFGMLRRWDDSQKYLSDNVHLVCEETANYLVIWCIDLEVEEKCALMEQVAHQTIVMQFILELAKSLKVDPRACFRQFFTKIKTADRQYMEGFNDELEAFKERVRGRAKLRIEKAMKEYEEEERKKRLGPGGLDPVEVYESLPEELQKCFDVKDVQMLQDAISKMDPTDAKYHMQRCIDSGLWVPNSKASEAKEGEEAGPGDPLLEAVPKTGDEKDVSV
As to B1, the Kd was found to be 2.26 µM.

B2: FLAG-tagged CDC37 M164A (purified recombinant) (natural protein)
chain: B1 chain with M164A
As to B2, the Kd is 7.19 µM.
